Tests used:
[1] = molecular target: T1, human mtSSB (Homo sapiens) (UniProt Q04837); test: AFM; conditions: Anisotropy: 30 mM HEPES-KOH pH 7.5, 1 mM 2-mercaptoethanol, 5 mM MgCl2, 0.01% NP-40, 50 mM NaCl, 20 nM oligo, 20 C. AFM/DREEM: incubation in 20 mM HEPES pH …
T1 sequence: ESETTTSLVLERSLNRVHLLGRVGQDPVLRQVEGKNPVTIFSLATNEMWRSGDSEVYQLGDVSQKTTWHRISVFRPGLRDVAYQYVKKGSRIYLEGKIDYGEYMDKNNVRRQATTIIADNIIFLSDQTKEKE

[2] = molecular target: the molecule itself; test: AFM volume measurement; free mtSSB (8.4 nM tetramers) diluted in 20 mM HEPES (pH 7.5), 100 mM NaCl, deposited on freshly cleaved mica, imaged in air (AC mode); AFM volume converted to molecular weight with a calibration curve
[3] = molecular target: T2, human mtSSB (Homo sapiens, UniProt Q04837 17-148); test: fluorescence anisotropy; 5 mM MgCl2, 50 mM NaCl; tetramers; Anisotropy: 30 mM HEPES-KOH pH 7.5, 1 mM 2-mercaptoethanol, 5 mM MgCl2, 0.01% NP-40, 50 mM NaCl, 20 nM oligo, 20 C. AFM/DREEM: incubation in 20 mM HEPES pH 7.5
T2 sequence: T1 sequence

[4] = molecular target: T2, human mtSSB; test: fluorescence anisotropy; 5 mM MgCl2, 50 mM NaCl; tetramers; Hill coefficient 2.00; Anisotropy: 30 mM HEPES-KOH pH 7.5, 1 mM 2-mercaptoethanol, 5 mM MgCl2, 0.01% NP-40, 50 mM NaCl, 20 nM oligo, 20 C. AFM/DREEM: incubation in 20 mM HEPES pH 7.5
[5] = molecular target: T3, E. coli SSB (Escherichia coli, UniProt P0AGE0 1-178); test: fluorescence anisotropy; 5 mM MgCl2, 50 mM NaCl; tetramers; Hill coefficient 1.84; Anisotropy: 30 mM HEPES-KOH pH 7.5, 1 mM 2-mercaptoethanol, 5 mM MgCl2, 0.01% NP-40, 50 mM NaCl, 20 nM oligo, 20 C. AFM/DREEM: incubation in 20 mM HEPES pH 7.5
T3 sequence (P0AGE0 whole entry): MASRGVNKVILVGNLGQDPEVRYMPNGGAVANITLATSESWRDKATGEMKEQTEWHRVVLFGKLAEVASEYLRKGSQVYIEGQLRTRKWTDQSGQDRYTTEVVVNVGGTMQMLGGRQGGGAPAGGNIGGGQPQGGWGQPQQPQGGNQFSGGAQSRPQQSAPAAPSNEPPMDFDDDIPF

[6] = molecular target: T2, human mtSSB; test: fluorescence anisotropy; 5 mM MgCl2, 50 mM NaCl; Anisotropy: 30 mM HEPES-KOH pH 7.5, 1 mM 2-mercaptoethanol, 5 mM MgCl2, 0.01% NP-40, 50 mM NaCl, 20 nM oligo, 20 C. AFM/DREEM: incubation in 20 mM HEPES pH 7.5
[7] = molecular target: T3, E. coli SSB; test: AFM/DREEM; 100 mM NaCl; 10 mM Mg(OAc)2 in imaging buffer; 35% one strand wrapped, 65% two; Anisotropy: 30 mM HEPES-KOH pH 7.5, 1 mM 2-mercaptoethanol, 5 mM MgCl2, 0.01% NP-40, 50 mM NaCl, 20 nM oligo, 20 C. AFM/DREEM: incubation in 20 mM HEPES pH 7.5
[8] = molecular target: T2, human mtSSB; test: AFM/DREEM; 100 mM NaCl; 10 mM Mg(OAc)2 in imaging buffer; 85% one strand wrapped, 15% two; Anisotropy: 30 mM HEPES-KOH pH 7.5, 1 mM 2-mercaptoethanol, 5 mM MgCl2, 0.01% NP-40, 50 mM NaCl, 20 nM oligo, 20 C. AFM/DREEM: incubation in 20 mM HEPES pH 7.5

For linear 2030-bp DNA with 37-nt ssDNA gap, the binding signal (KSP/KNSP (gap vs duplex specificity)) [1] was 14500.

B1: human mitochondrial single-stranded DNA binding protein (natural protein, UniProt Q04837 17-148, looked up)
chain: T1 sequence
With B1 the “stoichiometry N” value [2] was 4.

ATGCTAGCTTGGCTGTGACTTTAAACCTGTCGTGCCAGCT (ssDNA, fluorescein on internal T21) [D1-F 40-nt ssDNA] showed a Kd [3] of 1.8 ± 0.9 nM.

B2: 5'-fluorescein 90-nt oligonucleotide (ssDNA)
DNA: TAATGCTATCACTATTCGTAGACTTGACCACACCTTGTCAGCTCACGCTCCAAATGAAAGTATAGCTAAACAGGTTATTGACCATATGCA
modifications: fluorescein on 5'-terminal T
Molecule B2 has a Kd [4] of 14.7 ± 0.5 nM and a Kd [5] of 25.4 ± 1.3 nM.

B3: D1-F/D2 40-bp dsDNA (dsDNA)
DNA 1: ATGCTAGCTTGGCTGTGACTTTAAACCTGTCGTGCCAGCT
DNA 2: AGCTGGCACGACAGGTTTAAAGTCACAGCCAAGCTAGCAT
modifications: fluorescein on internal T21 of D1
B3: no binding [6].

B4: 90-nt oligonucleotide (ssDNA)
DNA: B2 DNA
B4: binds [7]; binds [8].
